Results taken from US12409260.

Target: SARS-CoV-2 (2019-nCoV) Spike S1-His Recombinant Protein (Sino Biological Catalog Number 40591-V08H) (SARS-CoV-2) (UniProt P0DTC2)

Sequence of Galanthus nivalis agglutinin (GNA) (P30617 24-128 limits assumed): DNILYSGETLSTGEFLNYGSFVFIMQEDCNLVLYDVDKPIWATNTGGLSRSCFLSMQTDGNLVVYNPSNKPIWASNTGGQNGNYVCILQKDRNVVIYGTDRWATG

In the case of “Galanthus nivalis agglutinin (GNA) (from UniProt P30617 24-128)”, the percent of S1 depleted from solution at 15 minutes is reported as over 90%.
